Test results taken from PMC3741918 (FEBS Open Bio, 2013).

T1: human frataxin variant hFXN56–210 (human, UniProt Q16595 56-210)
T1 sequence (looked up): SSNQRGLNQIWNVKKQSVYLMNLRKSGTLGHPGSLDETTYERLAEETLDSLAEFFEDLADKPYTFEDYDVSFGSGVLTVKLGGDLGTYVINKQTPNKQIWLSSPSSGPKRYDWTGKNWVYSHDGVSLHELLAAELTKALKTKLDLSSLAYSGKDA

B1: peptide hFXN56–81 (peptide)
peptide: SSNQRGLNQIWNVKKQSVYLMNLRKS

What was measured:
[1] = biological target: human frataxin variant hFXN56–210 (human) (UniProt Q16595); experiment: SEC
[2] = biological target: T1, human frataxin variant hFXN56–210; experiment: aggregation assay

Molecule | percent of the protein in the oligomeric state [1] | binding result [2]
human frataxin variant hFXN56–210 (from UniProt Q16595 56-210) (domain or fragment) | 60% | 
B1 |  | binds
